Experimental data from US20220340642A1 (Kyowa Kirin, published 2022).

B1: soluble recombinant of mouse TL1A (His6, GS linker, Ile94-Leu270) (ligand)
chain: HHHHHHGGGSGGGSGGGSITEERSEPSPQQVYSPPRGKPRAHLTIKKQTPAPHLKNQLSALHWEHDLGMAFTKNGMKYINKSLVIPESGDYFIYSQITFRGTTSVCGDISRGRRPNKPDSITMVITKVADSYPEPARLLTGSKSVCEISNNWFQSLYLGATFSLEEGDRLMVNVSDISLVDYTKEDKTFFGAFLL
B2: soluble recombinant of human TL1A (His6, GS linker, Leu72-Leu251) (ligand)
chain: HHHHHHGGGSGGGSGGGSLKGQEFAPSHQQVYAPLRADGDKPRAHLTVVRQTPTQHFKNQFPALHWEHELGLAFTKNRMNYTNKFLLIPESGDYFIYSQVTFRGMTSECSEIRQAGRPNKPDSITVVITKVTDSYPEPTQLLMGTKSVCEVGSNWFQPIYLGAMFSLQEGDKLMVNVSDISLVDYTKEDKTFFGAFLL
notes: also called His6-TL1A; hTL1A
B3: soluble recombinant of cynomolgus monkey TL1A (His6, GS linker, Leu72-Leu251) (ligand)
chain: HHHHHHGGGSGGGSGGGSLKGQEFAPSHQQVYAPLRADGDKPRAHLTVVRQTPTQHLKNQFPALHWEHELGLAFTKNRMNYTNKFLLIPESGDYFVYSQVTFRGMTSECSEIRQAGRPNKPDSITVVITKVTDSYPEPTQLLMGTKSVCEVGSNWFQPIYLGAMFSLQEGDKLMVNVSDISLVDYTKEDKTFFGAFLL
notes: also called His6-cynoTL1A
B4: soluble recombinant of human LIGHT (His10, GS linker, Asp74-Val240) (ligand)
chain: HHHHHHHHHHGGGSGGGSGGGSIEGRDGPAGSWEQLIQERRSHEVNPAAHLTGANSSLTGSGGPLLWETQLGLAFLRGLSYHDGALVVTKAGYYYIYSKVQLGGVGCPLGLASTITHGLYKRTPRYPEELELLVSQQSPCGRATSSSRVWWDSSFLGGVVHLEAGEKVVVRVLDERLVRLRDGTRSYFGAFMV
B5: soluble recombinant of cynomolgus monkey LIGHT (His10, GS linker, Asp74-Val240) (ligand)
chain: HHHHHHHHHHGGGSGGGSGGGSIEGRDGHGGSWEQLIQERRSHQNNPAAHLTGANSSLTGSGGPLLWETQLGLAFLRGLDYHDGALVANKAGYYYIYSKVQLGGVGCPLGLASTITHGLYKRTPRYPEELELLVSQQSPCGRATSNSRVWWDSSFLGGVVHLEVGEEVVVRVLDERLVRLRDGTRSYFGAFMV
B6: soluble recombinant of human FasL (His6, Pro134-Leu281) (ligand)
chain: PSPPPEKKELRKVAHLTGKSNSRSMPLEWEDTYGIVLLSGVKYKKGGLVINETGLYFVYSKVYFRGQSCNNLPLSHKVYMRNSKYPQDLVMMEGKMMSYCTTGQMWARSSYLGAVFNLTSADHLYVNVSELSLVNFEESQTFFGLYKL
B7: soluble recombinant of cynomolgus monkey FasL (His6, Pro133-Leu280) (ligand)
chain: PSPPPEKKEQRKVAHLTGKPNSRSMPLEWEDTYGIVLLSGVKYKKGGLVINETGLYFVYSKVYFRGQSCTNLPLSHKVYMRNSKYPQDLVMMEGKMMSYCTTGQMWAHSSYLGAVFNLTSADHLYVNVSELSLVNFEESQTFFGLYKL
notes: also called His6-cynoFasL
B8: soluble recombinant of mouse FasL (His6, Pro132-Leu279) (ligand)
chain: HHHHHHPSTPSEKKEPRSVAHLTGNPHSRSIPLEWEDTYGTALISGVKYKKGGLVINETGLYFVYSKVYFRGQSCNNQPLNHKVYMRNSKYPEDLVLMEEKRLNYCTTGQIWAHSSYLGAVFNLTSADHLYVNISQLSLINFEESKTFFGLYKL
B9: soluble recombinant of mouse LIGHT (His10, GS linker, Asp72-Val239) (ligand)
chain: HHHHHHHHHHGGGSGGGSGGGSIEGRDGGKGSWEKLIQDQRSHQANPAAHLTGANASLIGIGGPLLWETRLGLAFLRGLTYHDGALVTMEPGYYYVYSKVQLSGVGCPQGLANGLPITHGLYKRTSRYPKELELLVSRRSPCGRANSSRVWWDSSFLGGVVHLEAGEEVVVRVPGNRLVRPRDGTRSYFGAFMV
B10: DcR3 FL-Fc (R&D Systems, Inc.) (Fc fusion)
chain: VAETPTYPWRDAETGERLVCAQCPPGTFVQRPCRRDSPTTCGPCPPRHYTQFWNYLERCRYCNVLCGEREEEARACHATHNRACRCRTGFFAHAGFCLEHASCPPGAGVIAPGTPSQNTQCQPCPPGTFSASSSSSEQCQPHRNCTALGLALNVPGSSSHDTLCTSCTGFPLSTRVPGAEECERAVIDFVAFQDISIKRLQRLLQALEAPEGWGPTPRAGRAALQLKLRRRLTELLGAQDGALLVRLLQALRVARMPGLERSVRERFLPVHIEGRMD

biological target: T1, DcR3 FL-Fc (R&D Systems, Inc.) (human, UniProt O95407 30-300); assay: SPR, binder captured
T1 construct: Bought product made in insect cells; also called DcR3-Fc (R&D Systems, Inc.); DcR3 FL-Fc (IgG1)
T1 sequence: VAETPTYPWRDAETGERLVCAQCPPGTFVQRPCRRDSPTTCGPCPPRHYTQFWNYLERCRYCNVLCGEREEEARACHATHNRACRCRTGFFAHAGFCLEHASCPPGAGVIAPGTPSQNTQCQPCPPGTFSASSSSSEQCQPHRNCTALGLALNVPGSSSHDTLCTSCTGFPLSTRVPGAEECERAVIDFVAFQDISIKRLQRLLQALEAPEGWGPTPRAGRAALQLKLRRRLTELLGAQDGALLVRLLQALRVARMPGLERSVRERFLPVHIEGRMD
Protocol: Regarding each of the various wild-type DcR3 controls and the DcR3 variants shown in Table 9, the binding activities to DcR3 ligands (LIGHT, TL1A, FasL) were analyzed by the SPR method using BIAcore T-100 (GE Healthcare). As the buffer, HBS-EP+Buffer was used.
After 10,000 RU of anti-human antibodies were immobilized to Series S Sensor Chip CM5 using Human Antibody Capture Kit (GE Healthcare), various wild-type DcR3 controls and DcR3 variants were injected at the flow rate of 10 μL/min for 30 seconds and captured. Meanwhile, the buffer containing no protein was injected into reference flow cells. Thereafter, as an analyte, DcR3 ligands of a human, a cynomolgus monkey or a mouse diluted to 0.08 to 80 nmol/L were injected at 10 μL/min for 2 minutes to monitor the binding, and subsequently the buffer was injected for 3 minutes to monitor dissociation. Then, 3 mol/L magnesium chloride was injected at 20 μL/min for 1 minute to perform a regeneration reaction. […] As a result of measurement, except for mouse LIGHT for which a trimer could not be produced, it was confirmed that various wild-type DcR3 controls and DcR3 variants bind to each DcR3 ligand of a human, a cynomolgus monkey or a mouse.

Row | Binder | Kd | koff | kon | binding result
1 | B1 | 0.58 nM | 0.00049 s⁻¹ | 840000 M⁻¹ s⁻¹ | 
2 | B2 | 0.89 nM | 0.00035 s⁻¹ | 390000 M⁻¹ s⁻¹ | 
3 | B3 | 0.92 nM | 0.00035 s⁻¹ | 380000 M⁻¹ s⁻¹ | 
4 | B4 | 1.1 nM | 0.0004 s⁻¹ | 380000 M⁻¹ s⁻¹ | 
5 | B5 | 1.2 nM | 0.00038 s⁻¹ | 310000 M⁻¹ s⁻¹ | 
6 | B6 | 1.3 nM | 0.0004 s⁻¹ | 310000 M⁻¹ s⁻¹ | 
7 | B7 | 1.1 nM | 0.00033 s⁻¹ | 300000 M⁻¹ s⁻¹ | 
8 | B8 | 65 nM | 0.0097 s⁻¹ | 150000 M⁻¹ s⁻¹ | 
9 | B9 |  |  |  | no binding (tested: 0.08 to 80 nmol/L)

Biological target: T2, soluble recombinant of human TL1A (His6, GS linker, Leu72-Leu251) (UniProt O95150 72-251)
T2 chain: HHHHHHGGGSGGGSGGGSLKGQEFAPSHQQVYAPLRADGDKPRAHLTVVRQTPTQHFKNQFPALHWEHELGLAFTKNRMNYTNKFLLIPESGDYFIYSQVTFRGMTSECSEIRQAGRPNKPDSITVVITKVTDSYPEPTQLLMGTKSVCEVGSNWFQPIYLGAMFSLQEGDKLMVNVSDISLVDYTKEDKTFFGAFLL
Assay: BIAcore SPR
Method in brief: (§1)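 The dissociation constant (Kd, nM) reflects binding of each test molecule to soluble recombinant His-tagged human or cynomolgus monkey LIGHT, TL1A or FasL. It was derived from surface plasmon resonance measurements in HBS-EP+ Buffer using a BIAcore T-100 or T-200 instrument (GE Healthcare).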

Row | Binder | Kd
10 | B10 | 0.21 nM

Biological target: T3, soluble recombinant of human FasL (His6, Pro134-Leu281) (UniProt P48023 134-281)
T3 chain: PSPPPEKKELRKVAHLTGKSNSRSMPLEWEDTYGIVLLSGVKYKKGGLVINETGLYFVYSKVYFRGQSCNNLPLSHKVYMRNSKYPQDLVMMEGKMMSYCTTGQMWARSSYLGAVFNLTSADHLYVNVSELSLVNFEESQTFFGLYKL
Assay: BIAcore SPR
Method in brief: as §1

Row | Binder | Kd
11 | B10 | 0.93 nM

Biological target: T4, soluble recombinant of human LIGHT (His10, GS linker, Asp74-Val240)
T4 chain: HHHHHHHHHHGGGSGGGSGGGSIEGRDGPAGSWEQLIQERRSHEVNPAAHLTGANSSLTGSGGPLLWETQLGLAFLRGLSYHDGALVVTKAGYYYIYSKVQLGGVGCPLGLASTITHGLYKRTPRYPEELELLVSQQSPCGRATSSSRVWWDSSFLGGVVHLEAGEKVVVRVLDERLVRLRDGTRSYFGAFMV
Assay: BIAcore SPR
Method in brief: as §1

Row | Binder | Kd
12 | B10 | 0.21 nM
